Assays:
[1] = target: ALPHA-2-HS-GLYCOPROTEIN (human) (UniProt P02765); experiment: untreated sample on M-LAC column, displacer fraction, peak area of peptide …
[2] = target: Alpha-1-acid-glycoprotein (human) (UniProt P02763); experiment: as above
[3] = target: Beta-2-glycoprotein (human) (UniProt P02749); experiment: as above
[4] = target: HAPTOGLOBIN-2 (human) (UniProt P00738); experiment: as above
[5] = target: SERO… (human) (UniProt P02787); experiment: as above
[6] = target: Alpha-1-acid-glycoprotein in neuraminidase-treated serum (human) (UniProt P02763); experiment: neuraminidized sample on M-LAC column, displacer fraction, peak area of peptide …
Alpha-1-acid-glycoprotein in neuraminidase-treated serum (human), sequence (P02763 19-201 limits assumed): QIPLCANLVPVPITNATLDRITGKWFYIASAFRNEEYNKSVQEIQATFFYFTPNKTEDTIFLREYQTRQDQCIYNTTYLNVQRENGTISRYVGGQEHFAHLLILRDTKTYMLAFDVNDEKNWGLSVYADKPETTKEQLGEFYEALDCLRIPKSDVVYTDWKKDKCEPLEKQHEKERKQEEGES

[7] = target: Alpha-2HS-glycoprotein in neuraminidase-treated serum (human) (UniProt P02765); experiment: as above
Alpha-2HS-glycoprotein in neuraminidase-treated serum (human), sequence (P02765 19-300 limits assumed, chain 1 of 2): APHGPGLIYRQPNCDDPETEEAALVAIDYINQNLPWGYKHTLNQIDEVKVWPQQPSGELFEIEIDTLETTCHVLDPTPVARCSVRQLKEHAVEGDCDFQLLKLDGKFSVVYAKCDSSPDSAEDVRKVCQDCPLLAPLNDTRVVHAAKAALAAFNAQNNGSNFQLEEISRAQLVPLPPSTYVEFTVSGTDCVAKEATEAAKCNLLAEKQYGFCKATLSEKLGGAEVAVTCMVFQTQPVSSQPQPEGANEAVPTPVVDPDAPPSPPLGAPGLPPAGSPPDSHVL
Alpha-2HS-glycoprotein in neuraminidase-treated serum (human), sequence (P02765 341-367 limits assumed, chain 2 of 2): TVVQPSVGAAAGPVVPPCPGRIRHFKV

[8] = target: Beta-2-glycoprotein in neuraminidase-treated serum (human) (UniProt P02749); experiment: as above
[9] = target: Haptoglobin in neuraminidase-treated serum (human) (UniProt P00738); experiment: as above
Haptoglobin in neuraminidase-treated serum (human), sequence (P00738 19-406 limits assumed): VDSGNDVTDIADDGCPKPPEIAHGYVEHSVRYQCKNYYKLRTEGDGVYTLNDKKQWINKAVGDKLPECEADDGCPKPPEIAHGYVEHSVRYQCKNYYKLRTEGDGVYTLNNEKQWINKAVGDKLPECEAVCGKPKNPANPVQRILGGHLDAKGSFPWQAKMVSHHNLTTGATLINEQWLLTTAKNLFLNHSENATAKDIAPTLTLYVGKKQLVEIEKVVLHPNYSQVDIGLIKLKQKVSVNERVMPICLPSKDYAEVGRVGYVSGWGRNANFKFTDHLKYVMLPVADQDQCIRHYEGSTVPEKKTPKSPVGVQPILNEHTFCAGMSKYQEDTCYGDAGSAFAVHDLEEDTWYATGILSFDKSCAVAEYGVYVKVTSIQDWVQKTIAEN

[10] = target: asialotransferrin (human) (UniProt P02787); experiment: as above
[11] = target: APOLIPOPROTEIN A-I (human) (UniProt P02647); experiment: human serum on M-LAC column, displacer fraction, LC-MS/MS; smaller rank = more abundant
UniProt P02647, sequence (P02647 25-267 limits assumed): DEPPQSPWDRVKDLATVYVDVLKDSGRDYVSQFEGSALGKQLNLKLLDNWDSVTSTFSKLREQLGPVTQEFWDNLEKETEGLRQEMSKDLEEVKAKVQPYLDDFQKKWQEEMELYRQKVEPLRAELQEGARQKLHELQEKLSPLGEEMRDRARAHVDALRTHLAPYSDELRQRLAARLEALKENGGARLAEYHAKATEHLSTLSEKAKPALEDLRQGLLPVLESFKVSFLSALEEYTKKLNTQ

[12] = target: Alpha-1-acid-glycoprotein (human) (UniProt P02763); experiment: as above
[13] = target: Beta-2-glycoprotein (human) (UniProt P02749); experiment: as above
[14] = target: CERULOPLASMIN (human) (UniProt P00450); experiment: as above
[15] = target: HAPTOGLOBIN-2 (human) (UniProt P00738); experiment: as above
[16] = target: ALPHA-2-HS-GLYCOPROTEIN (human) (UniProt P02765); experiment: human serum on M-LAC column, displacer fraction, extracted ion chromatogram of peptide …
[17] = target: Alpha-1-acid-glycoprotein (human) (UniProt P02763); experiment: as above
[18] = target: Beta-2-glycoprotein (human) (UniProt P02749); experiment: as above
[19] = target: HAPTOGLOBIN-2 (human) (UniProt P00738); experiment: as above
[20] = target: SERO… (human) (UniProt P02787); experiment: as above
[21] = target: Alpha-1-acid-glycoprotein in fucosidase-treated serum (human) (UniProt P02763); experiment: fucosidase-treated serum on M-LAC column, displacer fraction, LC-MS/MS; smaller rank = more abundant
Alpha-1-acid-glycoprotein in fucosidase-treated serum (human), sequence (P02763 19-201 limits assumed): as the sequence (P02763 19-201 limits assumed) above

[22] = target: Apolipoprotein A-I in fucosidase-treated serum (human) (UniProt P02647); experiment: as above
Apolipoprotein A-I in fucosidase-treated serum (human), sequence (P02647 25-267 limits assumed): as the sequence (P02647 25-267 limits assumed) above

[23] = target: Ceruloplasmin in fucosidase-treated serum (human) (UniProt P00450); experiment: as above
[24] = target: Haptoglobin in fucosidase-treated serum (human) (UniProt P00738); experiment: as above
Haptoglobin in fucosidase-treated serum (human), sequence (P00738 19-406 limits assumed): as the sequence (P00738 19-406 limits assumed) above

[25] = target: Alpha-1-acid-glycoprotein in fucosidase-treated serum (human) (UniProt P02763); experiment: fucosidase-treated serum on M-LAC column, displacer fraction, extracted ion chromatogram of peptide …
[26] = target: Apolipoprotein A-I in fucosidase-treated serum (human) (UniProt P02647); experiment: as above
[27] = target: Ceruloplasmin in fucosidase-treated serum (human) (UniProt P00450); experiment: as above
[28] = target: Haptoglobin in fucosidase-treated serum (human) (UniProt P00738); experiment: as above
[29] = target: … ZONE PROTEIN (human) (UniProt P20742); experiment: human serum on M-LAC column, displacer fraction, extracted ion chromatogram of peptide … (so in the source)
… ZONE PROTEIN (human), sequence (P20742 26-1482 limits assumed): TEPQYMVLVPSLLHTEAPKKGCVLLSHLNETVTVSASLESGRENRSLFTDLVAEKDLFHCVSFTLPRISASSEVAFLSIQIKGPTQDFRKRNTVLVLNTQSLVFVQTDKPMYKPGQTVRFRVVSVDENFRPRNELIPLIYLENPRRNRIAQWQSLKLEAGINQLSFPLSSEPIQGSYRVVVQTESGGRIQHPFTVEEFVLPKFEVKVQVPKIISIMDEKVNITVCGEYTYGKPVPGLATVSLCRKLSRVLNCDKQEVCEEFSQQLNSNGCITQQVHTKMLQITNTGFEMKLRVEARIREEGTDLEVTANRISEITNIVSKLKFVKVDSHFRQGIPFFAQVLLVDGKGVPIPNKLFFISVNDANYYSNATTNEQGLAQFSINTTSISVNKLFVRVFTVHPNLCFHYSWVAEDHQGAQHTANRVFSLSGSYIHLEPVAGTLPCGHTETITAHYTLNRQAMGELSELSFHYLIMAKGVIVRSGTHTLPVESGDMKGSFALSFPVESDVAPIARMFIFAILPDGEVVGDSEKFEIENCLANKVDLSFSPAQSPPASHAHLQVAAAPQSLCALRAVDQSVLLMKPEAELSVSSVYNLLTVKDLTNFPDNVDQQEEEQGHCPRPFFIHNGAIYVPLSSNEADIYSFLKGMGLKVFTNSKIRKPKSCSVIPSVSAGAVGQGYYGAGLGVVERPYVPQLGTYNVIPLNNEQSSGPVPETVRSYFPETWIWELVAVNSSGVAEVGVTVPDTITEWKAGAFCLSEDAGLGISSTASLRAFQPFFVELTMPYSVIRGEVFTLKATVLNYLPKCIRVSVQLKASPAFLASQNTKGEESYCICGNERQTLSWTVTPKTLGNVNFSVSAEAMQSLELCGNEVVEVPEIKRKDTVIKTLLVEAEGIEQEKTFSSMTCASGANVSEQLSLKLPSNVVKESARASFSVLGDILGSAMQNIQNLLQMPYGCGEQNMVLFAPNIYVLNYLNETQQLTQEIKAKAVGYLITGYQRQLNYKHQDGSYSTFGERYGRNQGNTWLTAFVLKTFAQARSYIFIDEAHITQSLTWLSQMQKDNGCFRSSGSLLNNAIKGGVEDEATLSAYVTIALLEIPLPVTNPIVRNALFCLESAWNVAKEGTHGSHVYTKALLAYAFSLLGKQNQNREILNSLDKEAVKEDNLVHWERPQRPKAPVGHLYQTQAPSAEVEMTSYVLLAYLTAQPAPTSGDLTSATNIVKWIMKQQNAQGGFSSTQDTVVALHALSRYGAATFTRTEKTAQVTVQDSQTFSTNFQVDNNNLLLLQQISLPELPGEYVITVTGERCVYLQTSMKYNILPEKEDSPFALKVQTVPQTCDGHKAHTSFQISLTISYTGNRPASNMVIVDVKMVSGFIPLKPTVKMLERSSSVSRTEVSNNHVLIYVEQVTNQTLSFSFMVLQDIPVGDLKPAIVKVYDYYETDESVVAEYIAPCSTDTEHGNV

[30] = target: Alpha-1-acid-glycoprotein in neuraminidase-treated serum (human) (UniProt P02763); experiment: neuraminidase-treated serum on M-LAC column, displacer fraction, extracted ion chromatogram of peptide …
[31] = target: Alpha-2HS-glycoprotein in neuraminidase-treated serum (human) (UniProt P02765); experiment: as above
[32] = target: Beta-2-glycoprotein in neuraminidase-treated serum (human) (UniProt P02749); experiment: as above
[33] = target: Haptoglobin in neuraminidase-treated serum (human) (UniProt P00738); experiment: as above
[34] = target: HAPTOGLOBIN-2 (human) (UniProt P00738); experiment: human serum on Con A/WGA/Jacalin column, lectin-specific displacer fraction, LC-MS/MS; grade = SEQUEST rank group (+ = ranks 1-5, ++++ = 16-20)

HAPTOGLOBIN-2 (human), sequence (P00738 19-406 limits assumed): as the sequence (P00738 19-406 limits assumed) above
UniProt P02765, sequence (P02765 19-300 limits assumed, chain 1 of 2): as the sequence (P02765 19-300 limits assumed, chain 1 of 2) above
Alpha-1-acid-glycoprotein (human), sequence (P02763 19-201 limits assumed): as the sequence (P02763 19-201 limits assumed) above
Beta-2-glycoprotein (human), sequence (P02749 20-345 limits assumed): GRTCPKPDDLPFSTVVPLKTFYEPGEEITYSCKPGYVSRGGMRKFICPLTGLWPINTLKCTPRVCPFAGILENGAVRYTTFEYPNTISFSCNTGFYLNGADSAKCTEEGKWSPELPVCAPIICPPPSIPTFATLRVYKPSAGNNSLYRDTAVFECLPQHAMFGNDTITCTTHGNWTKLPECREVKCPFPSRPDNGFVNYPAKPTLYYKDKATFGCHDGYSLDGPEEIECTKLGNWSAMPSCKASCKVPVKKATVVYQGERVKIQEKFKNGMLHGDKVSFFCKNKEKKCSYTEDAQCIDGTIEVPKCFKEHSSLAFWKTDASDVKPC

Row | peptide peak area in displacer fraction [1] | peptide peak area in displacer fraction [2] | peptide peak area in displacer fraction [3] | peptide peak area in displacer fraction [4] | peptide peak area in displacer fraction [5] | peptide peak area in displacer fraction [6] | peptide peak area in displacer fraction [7] | peptide peak area in displacer fraction [8] | peptide peak area in displacer fraction [9] | peptide peak area in displacer fraction [10] | SEQUEST rank in displacer fraction [11] | SEQUEST rank in displacer fraction [12] | SEQUEST rank in displacer fraction [13] | SEQUEST rank in displacer fraction [14] | SEQUEST rank in displacer fraction [15] | peptide peak area in displacer fraction [16] [counts] | peptide peak area in displacer fraction [17] [counts] | peptide peak area in displacer fraction [18] [counts] | peptide peak area in displacer fraction [19] [counts] | peptide peak area in displacer fraction ([20]; peptide at M/Z 530.2) [counts] | Substance | other results
1 | 1.7 | 129 | 1.8 | 236 | 8.1 | 0 | 0.9 | 0 | 163 | 1.6 | 10 | 7 | 52 | 8 | 4 | 1.7e+06 | 1.29e+08 | 1.8e+06 | 2.36e+08 | 7.7e+06 | wheat germ agglutinin (WGA), agarose-bound (from UniProt P10968 27-197) | peptide peak area in displacer fraction ([20]; peptide at M/Z 790.1): 5e+06 counts; SEQUEST rank in displacer fraction [21]: 9; SEQUEST rank in displacer fraction [22]: 24; SEQUEST rank in displacer fraction [23]: 28; SEQUEST rank in displacer fraction [24]: 2; peptide peak area in displacer fraction [25]: 5e+07 counts; peptide peak area in displacer fraction [26]: 1.6e+07 counts; peptide peak area in displacer fraction [27]: 1.1e+07 counts; peptide peak area in displacer fraction [28]: 8.2e+07 counts; peptide peak area in displacer fraction [29]: 1.1e+07 counts; peptide peak area in displacer fraction [30]: 0 counts; peptide peak area in displacer fraction [31]: 900000 counts; peptide peak area in displacer fraction [32]: 0 counts; peptide peak area in displacer fraction [33]: 1.63e+08 counts; SEQUEST ranking (relative abundance in the WGA displacement fraction) [34]: 1 to 5 rank
2 | 4 | 9.7 | 2.6 | 10.1 | 20 | 12.3 | 7.4 | 3.8 | 12.6 | 28 | 4 | 21 | 20 | 24 | 9 | 4e+06 | 9.7e+06 | 2.6e+06 | 1e+07 | 1.9e+07 | Jacalin lectin, agarose-bound (from UniProt P18670 1-133; P18671 1-20) | peptide peak area in displacer fraction ([20]; peptide at M/Z 790.1): 7e+06 counts; SEQUEST rank in displacer fraction [21]: 19; SEQUEST rank in displacer fraction [22]: 5; SEQUEST rank in displacer fraction [23]: 6; SEQUEST rank in displacer fraction [24]: 7; peptide peak area in displacer fraction [25]: 1.7e+07 counts; peptide peak area in displacer fraction [26]: 4.3e+07 counts; peptide peak area in displacer fraction [27]: 6.2e+06 counts; peptide peak area in displacer fraction [28]: 2.2e+07 counts; peptide peak area in displacer fraction [29]: 0 counts; peptide peak area in displacer fraction [30]: 1.2e+07 counts; peptide peak area in displacer fraction [31]: 7.4e+06 counts; peptide peak area in displacer fraction [32]: 3.8e+06 counts; peptide peak area in displacer fraction [33]: 1.3e+07 counts; SEQUEST ranking (relative abundance in the Jacalin displacement fraction) [34]: 11 to 15 rank

Row | Substance | peptide peak area in displacer fraction [1] | peptide peak area in displacer fraction [2] | peptide peak area in displacer fraction [3] | peptide peak area in displacer fraction [4] | peptide peak area in displacer fraction [5] | peptide peak area in displacer fraction [6] | peptide peak area in displacer fraction [7] | peptide peak area in displacer fraction [8] | peptide peak area in displacer fraction [9] | peptide peak area in displacer fraction [10] | SEQUEST rank in displacer fraction [11] | SEQUEST rank in displacer fraction [12] | SEQUEST rank in displacer fraction [13] | SEQUEST rank in displacer fraction [14] | SEQUEST rank in displacer fraction [15] | peptide peak area in displacer fraction [16] [counts] | peptide peak area in displacer fraction [17] [counts] | peptide peak area in displacer fraction [18] [counts] | peptide peak area in displacer fraction [19] [counts] | peptide peak area in displacer fraction ([20]; peptide at M/Z 530.2) [counts] | other results
3 | Concanavalin A (Con A), agarose-bound (from UniProt P02866 30-281) | 2.6 | 9.2 | 3.5 | 39.3 | 23 | 10.7 | 2.6 | 8.4 | 46.9 | 36 | 19 | 33 | 20 | 14 | 7 | 2.6e+06 | 9.2e+06 | 3.5e+06 | 3.9e+07 | 2e+07 | peptide peak area in displacer fraction ([20]; peptide at M/Z 790.1): 7.8e+06 counts; SEQUEST rank in displacer fraction [21]: 38; SEQUEST rank in displacer fraction [22]: 12; SEQUEST rank in displacer fraction [23]: 8; SEQUEST rank in displacer fraction [24]: 5; peptide peak area in displacer fraction [25]: 1e+07 counts; peptide peak area in displacer fraction [26]: 1.2e+07 counts; peptide peak area in displacer fraction [27]: 9.8e+06 counts; peptide peak area in displacer fraction [28]: 5.1e+07 counts; peptide peak area in displacer fraction [29]: 6.6e+06 counts; peptide peak area in displacer fraction [30]: 1.1e+07 counts; peptide peak area in displacer fraction [31]: 2.6e+06 counts; peptide peak area in displacer fraction [32]: 8.4e+06 counts; peptide peak area in displacer fraction [33]: 4.7e+07 counts; SEQUEST ranking (relative abundance in the Con A displacement fraction) [34]: 6 to 10 rank
